This note sets out measurements from US20050268353A1.

For assay [1], the target named is Midgut brush border membranes of Helicoverpa armigera larvae. Put plainly: 125I-labelled HaSV particles (103,000 cpm) incubated 1 h with midgut brush border membranes, pelleted, washed three times, gamma counting.
Assay [2] shares this target. Description: 125I-labelled HaSV particles with midgut brush border membranes preincubated 1 h with unlabelled HaSV (self-competition).
For assay [3] the target is unchanged. Put plainly: 125I-labelled HaSV particles with midgut brush border membranes boiled before the incubation (control).

Regarding “Helicoverpa armigera stunt virus (HaSV) particles (from UniProt Q82462 1-647)”, the figures for the cpm remaining with the membranes after washing in assay [1], in assay [2] and in assay [3] were 8500 cpm, 2100 cpm and 1700 cpm, respectively.
